In patent US20250340608A1 (PROTAGONIST THERAPEUTICS, published 2025):
Blank lines part the entries; values can stand above or below the binder they belong to. Numbered stars: 1 amine (or outer) side, 2 acyl side, 3 side chain; on linkers, the order of the positions; unused ones are H or OH. Side chains are listed from the residue outwards. * marks the point of attachment. γGlu = O=C(O)[C@H](CCC(=O)[*:2])N[*:1]; Palmitoyl = CCCCCCCCCCCCCCCC(=O)*; Isovaleryl = CC(C)CC(=O)*; dapa = not defined here

What was measured:
[1] = biological target: T1, human ferroportin (SLC40A1) fused in frame with GFP, stably expressed in HEK293 cells (human, UniProt Q9NP59 1-571); test: cell-based or functional assay
T1 sequence (looked up): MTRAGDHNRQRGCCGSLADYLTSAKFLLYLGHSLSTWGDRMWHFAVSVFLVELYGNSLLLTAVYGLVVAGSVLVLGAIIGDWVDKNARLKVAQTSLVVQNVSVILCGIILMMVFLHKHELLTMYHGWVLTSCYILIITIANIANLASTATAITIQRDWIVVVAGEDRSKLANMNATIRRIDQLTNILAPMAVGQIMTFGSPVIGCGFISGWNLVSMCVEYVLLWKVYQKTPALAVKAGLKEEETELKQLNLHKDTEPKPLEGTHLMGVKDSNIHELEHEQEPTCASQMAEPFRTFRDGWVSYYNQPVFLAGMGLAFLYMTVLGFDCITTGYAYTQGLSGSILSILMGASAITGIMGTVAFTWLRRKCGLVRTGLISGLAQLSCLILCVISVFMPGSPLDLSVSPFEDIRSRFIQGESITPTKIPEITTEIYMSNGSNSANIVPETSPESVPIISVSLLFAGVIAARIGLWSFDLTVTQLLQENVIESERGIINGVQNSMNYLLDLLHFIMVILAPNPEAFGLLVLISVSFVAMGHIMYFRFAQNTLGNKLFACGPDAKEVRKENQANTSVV

[2] = biological target: T2, human ferroportin (SLC40A1) fused in frame with GFP, stably expressed in HEK293 cells (human, UniProt Q9NP59 1-571); test: cell-based or functional assay; remark: listed apart in the source
T2 sequence (looked up): T1 sequence (looked up)

- Potency EC50 [1]: 498 nM
B1: Compound 60 (peptide)
peptide: H-DTAFPICIFGPRSKGWVCM-NH2
modifications: cysteine pairing not given here

- Potency EC50 [2]: 17 nM
B2: Compound 225 (peptide)
peptide: Isovaleryl-DTHFPCIK([dapa-Palmitoyl])FEPRSKGCK-NH2
modifications: not fully specified (bridges); cysteine pairing not given here; reading uncertain

- Potency EC50 [1]: 382 nM
B3: Compound 51 (peptide)
peptide: H-DTHFPCIAF-NH2

- Potency EC50 [1]: 2470 nM
B4: Compound 67 (peptide)
peptide: H-DTHFPICIAGPRSKGWVCM-NH2
modifications: cysteine pairing not given here

- Potency EC50 [1]: 175 nM
B5: Compound 31 (peptide)
peptide: H-DTHFPICIFGPRSKAWVCM-NH2
modifications: cysteine pairing not given here

- Potency EC50 [1]: 388 nM
B6: Compound 52 (peptide)
peptide: H-DAHFPCIIF-NH2

- Potency EC50 [1]: 206 nM
B7: Compound 34 (peptide)
peptide: H-DTHFPICIFGPASKGWVCM-NH2
modifications: cysteine pairing not given here

- Potency EC50 [1]: 184 nM
B8: Compound 33 (peptide)
peptide: H-ATHFPICIFGPRSKGWVCM-NH2
modifications: cysteine pairing not given here

- Potency EC50 [2]: 4 nM
B9: Compound 222 (peptide)
peptide: Isovaleryl-DTHFPCIKFEPRSKK([γGlu-Palmitoyl])CK-NH2
modifications: not fully specified (bridges); cysteine pairing not given here

- Potency EC50 [1]: 520 nM
B10: Compound 66 (peptide)
peptide: H-DTHFPICIFGPRSKGAVCM-NH2
modifications: cysteine pairing not given here

- Potency EC50 [1]: 441 nM
B11: Compound 56 (peptide)
peptide: H-DTHFPCIFF-NH2

- Potency EC50 [2]: 5 nM
B12: Compound 220 (peptide)
peptide: Isovaleryl-DTHFPCIKFEPK([γGlu-Palmitoyl])SKGCK-NH2
modifications: not fully specified (bridges); cysteine pairing not given here

- Potency EC50 [1]: 313 nM
B13: Compound 47 (peptide)
peptide: H-DTHFPICIFGPRSKGWACM-NH2
modifications: cysteine pairing not given here

- Potency EC50 [2]: 4 nM
B14: Compound 224 (peptide)
peptide: DTHFPCIKFEPRSKGCKK
modifications: not fully specified; N-terminal isovaleric acid; K18(isoglu-Palm); C-terminal NH2

- Potency EC50 [1]: 419 nM
B15: Compound 55 (peptide)
peptide: H-DTHFPCIIFK-NH2

- Potency EC50 (nM) [1]: > 10000 nM
B16: Compound 68 (peptide)
peptide: H-DTHFPICAFGPRSKGWVCM-NH2
modifications: cysteine pairing not given here

- Potency EC50 [1]: 88 nM
B17: Compound 28 (peptide)
peptide: H-DTHFPICIFGPRAKGWVCM-NH2
modifications: cysteine pairing not given here

- Potency EC50 [1]: 254 nM
B18: Compound 38 (peptide)
peptide: H-DTHAPICIFGPRSKGWVCM-NH2
modifications: cysteine pairing not given here

- Potency EC50 [1]: 149 nM
B19: Compound 27 (peptide)
peptide: H-DTHFPICIFGPHRSKGWVCM-NH2
modifications: cysteine pairing not given here
